test: yeast display, Sf9 membrane polyspecificity reagent, FACS + sequencing; frameworks hold sequencing errors
Procedure, shortened: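 Nanobodies came from a synthetic yeast display library in Saccharomyces cerevisiae BJ5465, induced with galactose for 36–48 hours and stained for 1 hour at 4 °C with 10% biotinylated, detergent-solubilized Sf9 membrane reagent. Cells were enriched on streptavidin microbeads and then FACS-sorted, with low and high (top ~1%) gates set on anti-HA fluorescence for expression and streptavidin fluorescence for reagent binding. Each polyreactivity label reflects the gate a clone came from. Genes were amplified by colony PCR, sequenced by MiSeq 2 × 250 and filtered by CDR length.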

Row | Sequence | polyreactivity (PSR sort gate)
1 | QVQLVESGGGLVQAGGSLRLSCAASGFTFPVYTMGWYSQAPGKERELVAAISTAGAGTYYADSVKGRFTISRDNAKNTVYLQMNSLKPEDTAVYYCAAYKRGRPEMDYWGQGTQVTVSS | high polyreactivity
2 | QVQLVESGGGLVQAGGSLRLSCAASGFTFPWYAMGWYRQAPGKERELVAAISIGTGRTYYADSVKGRFTISRDNAKNTVYLQMNSLKPEDTAVYYCAAEDQYYEDGYWGQGTQVTVSS | high polyreactivity
3 | QVQLVESGGGLVQAGGSLRLSCAASGFTFPWYAMGWYRQAPGKERELVAALTGSGGSTDYADSVKGRFTISRDNAKNTVYLQMNSLKPEDTAVYYCNAGKTIDYRDGVGYDHWGQGTQVTVSS | low polyreactivity
4 | QVQLVESGGGLVQAGGSLRLSCAASGFTFPWYAMGWYSQAPGKERELVAAITSGGGSTYYADSVKGRFTISRDYAKNTVYLQMNSLKPEDTAVYYCAAVPALKWYGYEYWGQGTQVTVSS | high polyreactivity
5 | QVQLVESGGGLVQAGGSLRLSCAASGFTFPYNAMGWYRQAPVTERELVAAMSRGGGRTYYADSVKGRFTISRDNAKNTVNLQMNSLKPEDTAVYYCAKSPGQDTPYPYGYWGQGTQETVSS | high polyreactivity
6 | QVQLVESGGGLVQAGGSLRLSCAASGFTFPYNGMGWYRQAPGKERELVASISWSGASTYYADSVKGRFTISRDNAKNTVYLQMNSLKPEDTAVYYCASDPGYYSWGSSQDDYWGQGTQVTVSS | low polyreactivity
7 | QVQLVESGGGLVQAGGSLRLSCAASGFTFPYYAMGWYRQAPGKERELVATIRSGGSTYYADSVKGRFTISRDNAKNTVYLQMNSLKPEDTAVYYCAKYQVLYSYDKYGYWGQGTQVTVSS | low polyreactivity
8 | QVQLVESGGGLVQAGGSLRLSCAASGFTFQGNVMGWYRQAPGKERELVAASTGGGGDTYSADSVKGRFTISRDNAKNTVYLQMNSLKPEDTAVYYCAAEVAPEWYWPWFFDYADGYWGQGTQVTLSS | high polyreactivity
9 | QVQLVESGGGLVQAGGSLRLSCAASGFTFQKNAMGWNRQAPGKERDLVARITRSDGSTYYADSVKGRFTISRDNAKNTVYLPMNSLKPEDTAVYYWAARYCRLGSSRGGYWGQCTQVTVSS | low polyreactivity
10 | QVQLVESGGGLVQAGGSLRLSCAASGFTFQRYTMGWYRQAPGKERELVAAISWSGGSTYYADSVKGRFTISRDNAKNSVYLQMNSLKPEDTAVYYCAAYRVIPYLSDYWGEGTQVTVSS | high polyreactivity
11 | QVQLVESGGGLVQAGGSLRLSCAASGFTFQSYAMGWYRQAPGKESELVAAISWSGGSTYYADSVKGRFTISRDNAKNTVYLEMNSLKPEDTAVYYCAADAPRSYRFGYWGQGTQVTVSS | high polyreactivity
12 | QVQLVESGGGLVQAGGSLRLSCAASGFTFQYNAMGWYRQAPGKERELVAAITWTGTSTYADSVKGRFTISRDNAKNTVYLQLNSLKPEDTAVYYCAARYYAPRWFSYDYWGQGTQVTVSS | low polyreactivity
13 | QVQLVESGGGLVQAGGSLRLSCAASGFTFQYYAMGWYRQAPGKERELVAAISWGGGSTYYADSVKGRFTISRDNAKNTVYLQMNSLKPEDTAVYYCNAYEYLSAGYDYWGQGTQVTVSS | low polyreactivity
14 | QVQLVESGGGLVQAGGSLRLSCAASGFTFQYYAMGWYRQAPGKERELVAAISWSGGSTYYADSVKGRFTISRDNAKNTVYLQMNSLKPEDTAVYYCAAAPYTYPLGFDYWGQGTQVTVSS | high polyreactivity
15 | QVQLVESGGGLVQAGGSLRLSCAASGFTFRAYAMGWYRQAPGKERELVAAISRSGTSTYYADSVKGRFTISRDNAKYTVYLQMNSLKPEDTAVYYCAARLGPYHYATKMYYWGQGTQVTVSS | high polyreactivity
16 | QVQLVESGGGLVQAGGSLRLSCAASGFTFRAYAMGWYRQAPGKERELVAAITYSGDRTYYADSVKGRFTISRDNAKNTVYLQMNSLKPEDTAVYYCAAYGAKVNRPGYYYWGQGTQVTVSS | high polyreactivity
17 | QVQLVESGGGLVQAGGSLRLSCAASGFTFRDYAMGWYRPAPGKERELVAAIDIGTTTYYADSVKGRFTISRDNAKNTVYLQMNSLKPEDSAVYYCNKGTNRSGGYDSWGQGTQVTVSS | low polyreactivity
